Where two headings read alike, the source gives them in different places. Numbered stars: 1 amine (or outer) side, 2 acyl side, 3 side chain; on linkers, the order of the positions; unused ones are H or OH. Bridge positions count the residues as written; N and C are the ends. Square brackets hold non-standard residues; d marks the D form. Peptide text beside a SMILES is read from it. Adda = CO[C@@H](Cc1ccccc1)[C@@H](C)/C=C(C)/C=C/[C@H](N[*:1])[C@H](C)C(=O)[*:2]; dAsp(3S-Me) = C[C@H](C(=O)[*:3])[C@@H](N[*:1])C(=O)[*:2]; d(γGlu) = O=C(O)[C@@H](CCC(=O)[*:2])N[*:1]; NMeDha = C=C(NC)C(=O)O

Assay [1] has as its target T1, full-length C. albicans PPZ1 (Candida albicans) (UniProt Q59U06).
T1 sequence: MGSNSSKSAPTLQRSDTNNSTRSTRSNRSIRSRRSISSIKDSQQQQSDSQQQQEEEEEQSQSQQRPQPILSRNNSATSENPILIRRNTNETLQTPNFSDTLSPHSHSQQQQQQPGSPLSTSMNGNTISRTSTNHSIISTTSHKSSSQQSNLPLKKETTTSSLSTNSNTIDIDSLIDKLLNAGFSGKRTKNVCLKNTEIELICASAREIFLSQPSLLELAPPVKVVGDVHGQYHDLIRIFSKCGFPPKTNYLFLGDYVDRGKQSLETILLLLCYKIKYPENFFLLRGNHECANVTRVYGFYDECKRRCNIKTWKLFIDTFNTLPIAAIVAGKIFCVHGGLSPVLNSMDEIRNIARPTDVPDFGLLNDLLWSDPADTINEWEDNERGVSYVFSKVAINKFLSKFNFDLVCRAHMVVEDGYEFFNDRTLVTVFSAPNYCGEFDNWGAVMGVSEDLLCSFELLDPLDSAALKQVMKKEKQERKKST

Assay [2] deals with C. albicans PPZ1 C-terminal catalytic domain (aa 171 to 484), His6 tag removed (Candida albicans) (UniProt Q59U06).
For assay [3], the target named is human PP1α(7-330), His tag retained (human) (UniProt P62136).
Assay [4] deals with catalytic subunit of rabbit skeletal muscle protein phosphatase 1 (rabbit) (UniProt P62139).
Target sequence in this assay (P62139 whole entry, the tested form may be a part): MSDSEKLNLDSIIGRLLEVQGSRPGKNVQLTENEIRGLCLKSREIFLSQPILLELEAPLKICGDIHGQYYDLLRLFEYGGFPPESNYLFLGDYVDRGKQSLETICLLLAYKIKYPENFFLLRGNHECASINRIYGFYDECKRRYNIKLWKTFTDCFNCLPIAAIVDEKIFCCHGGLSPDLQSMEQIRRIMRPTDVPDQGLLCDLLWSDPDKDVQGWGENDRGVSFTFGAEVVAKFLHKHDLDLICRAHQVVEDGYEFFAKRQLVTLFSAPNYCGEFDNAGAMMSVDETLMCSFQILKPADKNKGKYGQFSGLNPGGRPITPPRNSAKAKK
Assay [5] has as its target T2, PP1α (Homo sapiens, UniProt P62136). The settings on record: cited from earlier work.
Target sequence in this assay (P62136 2-330): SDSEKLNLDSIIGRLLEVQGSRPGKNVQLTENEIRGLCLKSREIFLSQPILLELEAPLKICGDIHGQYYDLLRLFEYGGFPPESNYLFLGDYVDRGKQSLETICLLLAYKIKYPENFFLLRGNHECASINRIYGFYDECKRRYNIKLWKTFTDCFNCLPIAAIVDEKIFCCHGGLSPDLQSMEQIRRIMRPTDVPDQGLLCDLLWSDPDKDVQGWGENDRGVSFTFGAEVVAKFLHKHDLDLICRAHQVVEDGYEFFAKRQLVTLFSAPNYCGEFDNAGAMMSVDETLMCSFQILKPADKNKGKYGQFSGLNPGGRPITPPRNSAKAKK
A further assay deals with T3, PP1α7–330 (Homo sapiens, UniProt P62136).
T3 construct: PP1α7–330 and PPZ1cat were purified by the method described above; made in house; host or cells: E. coli
Kind of assay: Pulldown assay with PP1α. In kind it is binding. The settings on record: compared to wild-type spinophilin; in words. As for the experimental part: (§1) GADD34_552–567 was purchased. PNUTS394–433 and spinophilin417–602 were purified according to a method described previously ([19], [27]). […]. PP1α7–330 and PPZ1cat were purified by the method described above but retained the His tag. After SEC (20 mM Tris [pH 8.0], 500 mM NaCl, 0.5 mM TCEP, 1 mM MnCl2), 50% (vol/vol) glycerol was added to both PP1α7–330 and PPZ1cat. The final concentrations of the proteins were adjusted to 5 µM. […] of each PP1 regulator was added into 500 µl of PP1α7–330 or PPZ1cat. The mixture was incubated under rocking (4°C) for 60 min to allow for complex formation. A 15-μl bed volume of Ni-NTA resin (GE Healthcare) was added into tubes, and the mixture was incubated at 4°C for 60 min. The beads were pelleted by centrifugation (2000 × g) and washed three times with 500 µl of SEC buffer. Forty microliters of SDS loading buffer was added to the beads, and the samples were boiled at 80°C for 5 min and analyzed on NuPAGE 4 to 12% bis-Tris gels. Gels were stained overnight with SYPRO ruby protein gel stain (Life Technologies) according to the manufacturer’s protocols and scanned using a Typhoon 9410 laser scanner (GE Healthcare) with an excitation wavelength of 457 nm and emission filter of 610 nm following destaining. Densitometry was performed using ImageQuant TL 7.0 software for quantification of the band intensity.

Assay [6] addresses T2, PP1α. The settings on record: cited from earlier work. This is another data set of the same source.
Target sequence in this assay (P62136 2-330): as above
Assay [7] deals with T4, PPZ1cat (Candida albicans, UniProt C4YM68). Kind of assay: Pulldown assay with PPZ1cat. In kind it is binding. The settings on record: for Less binding in pulldown by PPZ1 compared to PP1α: densitometry of the gel. As for the experimental part: as §1
Assay [8] deals with T2, PP1α. The settings on record: cited from earlier work. The source holds these as a separate data set.
Target sequence in this assay (P62136 2-330): as above
In assay [9] the target is T4, PPZ1cat. Kind of assay: Phosphatase inhibition assay, pNPP substrate, PPZ1cat. The assay is classed as biochemical.
A further assay addresses PPZ1FL (Candida albicans, UniProt C4YM68). In kind it is biochemical.
Assay [10] has as its target T2, PP1α. Kind of assay: Phosphatase inhibition assay, pNPP substrate, PP1α. In kind it is biochemical. Also on record: made in house; host or cells: E. coli.
Target sequence in this assay (P62136 whole entry): as the sequence (P62139 whole entry, the tested form may be a part) above
For assay [11], the target named is T4, PPZ1cat. In kind it is biochemical.
A further assay relates to PP1c. In kind it is biochemical, rabbit.
The target of assay [12] is T1, full-length C. albicans PPZ1 (Candida albicans). This is another data set of the same source.
In assay [13] the target is C. albicans PPZ1 C-terminal catalytic domain (aa 171 to 484), His6 tag removed (Candida albicans) (UniProt Q59U06). This is another data set of the same source.
Assay [14] concerns the target catalytic subunit of rabbit skeletal muscle protein phosphatase 1 (rabbit) (UniProt P62139). This is another data set of the same source.
Target sequence in this assay (P62139 2-330): as the sequence (P62136 2-330) above
Assay [15] has as its target T5, C. albicans PPZ1 C-terminal catalytic domain (aa 171 to 484), His6 tag removed (Candida albicans, UniProt Q59U06 169-482).
T5 construct: also called PPZ1cat; CaPPZ1
T5 sequence: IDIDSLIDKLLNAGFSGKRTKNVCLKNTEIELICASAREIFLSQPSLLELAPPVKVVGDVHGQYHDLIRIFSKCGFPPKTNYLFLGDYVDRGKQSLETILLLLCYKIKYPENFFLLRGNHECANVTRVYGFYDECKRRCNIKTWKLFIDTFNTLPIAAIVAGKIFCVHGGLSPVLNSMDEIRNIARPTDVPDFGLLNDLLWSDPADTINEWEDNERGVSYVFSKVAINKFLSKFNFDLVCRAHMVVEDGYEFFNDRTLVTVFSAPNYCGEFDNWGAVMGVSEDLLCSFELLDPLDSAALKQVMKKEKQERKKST
Kind of assay: ITC. The following applies: both partners purified.

T4 sequence (C4YM68 entry or part of it): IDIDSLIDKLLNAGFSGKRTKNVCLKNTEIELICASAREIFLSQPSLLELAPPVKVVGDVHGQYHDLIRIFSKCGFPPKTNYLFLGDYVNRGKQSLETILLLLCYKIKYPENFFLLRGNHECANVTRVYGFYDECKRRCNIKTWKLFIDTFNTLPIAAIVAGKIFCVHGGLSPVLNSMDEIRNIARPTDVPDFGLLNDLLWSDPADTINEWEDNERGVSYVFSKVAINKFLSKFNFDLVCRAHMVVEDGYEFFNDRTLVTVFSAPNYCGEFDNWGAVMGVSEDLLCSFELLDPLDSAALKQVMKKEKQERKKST
Sequence of PPZ1FL (C4YM68 entry or part of it): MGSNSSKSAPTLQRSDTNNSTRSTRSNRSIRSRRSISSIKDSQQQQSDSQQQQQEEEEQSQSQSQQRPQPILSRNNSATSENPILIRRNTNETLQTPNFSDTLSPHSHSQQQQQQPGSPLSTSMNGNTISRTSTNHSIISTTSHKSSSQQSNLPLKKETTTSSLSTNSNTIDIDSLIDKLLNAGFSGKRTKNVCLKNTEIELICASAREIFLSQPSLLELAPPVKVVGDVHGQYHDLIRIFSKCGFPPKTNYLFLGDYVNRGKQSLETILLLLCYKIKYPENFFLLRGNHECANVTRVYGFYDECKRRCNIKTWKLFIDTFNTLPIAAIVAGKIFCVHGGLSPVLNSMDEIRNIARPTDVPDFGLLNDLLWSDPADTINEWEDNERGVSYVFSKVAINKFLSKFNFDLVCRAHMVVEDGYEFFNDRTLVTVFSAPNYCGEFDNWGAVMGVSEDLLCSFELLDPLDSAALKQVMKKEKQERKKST
T3 sequence (P62136 7-330): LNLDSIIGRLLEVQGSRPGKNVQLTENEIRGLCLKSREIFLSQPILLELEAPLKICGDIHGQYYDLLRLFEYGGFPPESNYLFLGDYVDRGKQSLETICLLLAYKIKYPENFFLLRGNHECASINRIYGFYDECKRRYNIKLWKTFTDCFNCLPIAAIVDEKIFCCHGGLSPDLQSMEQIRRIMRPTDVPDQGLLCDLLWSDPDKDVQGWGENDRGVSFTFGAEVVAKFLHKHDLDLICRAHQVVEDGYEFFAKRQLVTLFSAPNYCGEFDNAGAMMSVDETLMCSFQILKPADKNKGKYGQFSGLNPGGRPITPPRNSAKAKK
Sequence of human PP1α(7-330), His tag retained (human) (P62136 7-330): as above

With microcystin-LR (peptide), the inhibition of phosphatase activity, 32P-labeled MLC20 (pMLC) substrate, IC50 is 0.96 nM in assay [1], 0.72 nM in assay [2] and 0.43 nM in assay [4]. In addition, the inhibition of phosphatase activity, pNPP substrate, IC50 is 11.8 nM in assay [2] and 4.4 nM in [3].

For the molecule “spinophilin 417-602 (from UniProt O35274)”, in the assay with PP1α [5], the Kd is 8.7 nM.

Turning to “SpinoR469E: spinophilin417–602 variant with Arg motif mutation R469E”, the “Amount of spinophilin variant pulled down by PP1α” value in the assay with PP1α7–330 is reported as “reduces the amount of spinophilin pulled down”.

Take GADD34 552-567 (from UniProt O75807): in the assay with PP1α [6], the Kd is 62 nM.

With “PNUTS394–433: minimal PP1-binding domain of PP1 regulator PNUTS (RVxF-ΦΦ-Arg) (RKRKTVTWPEEGKLREYFYFELDETERVNVNKIKDFGEAA)”, the “Less binding in pulldown by PPZ1 compared to PP1α” value with PPZ1cat [7] is ~ 85%.

In the case of PNUTS 394-433 (from UniProt Q96QC0), the Kd with PP1α [8] is 9.3 nM.

For the molecule `C=C1C(=O)N[C@H](C)C(=O)N[C@@H](CC(C)C)C(=O)N[C@@H](C(=O)O)[C@H](C)C(=O)N[C@@H](CCCNC(=N)N)C(=O)N[C@@H](/C=C/C(C)=C/[C@H](C)[C@H](Cc2ccccc2)OC)[C@H](C)C(=O)N[C@@H](C(=O)O)CCC(=O)N1C` [MC, microcystin-LR] (R[Adda][d(γGlu)][NMeDha][dA]L[dAsp(3S-Me)]-OH; lactam N-7), the IC50 at PPZ1cat [9] was 11.8 nM; at PPZ1FL (read-out: IC50 of MC), 0.96 nM; on PP1α [10] it was 4.4 nM; on PPZ1cat [11] (read-out: IC50 of MC), 0.72 nM; with PP1c, 0.43 nM.

In the case of “spinophilin417–602: minimal PP1-binding domain of PP1 regulator spinophilin”, the “Less binding in pulldown by PPZ1 compared to PP1α” value with PPZ1cat [7] is listed as ~ 85%.

Consider “GADD34_552–567: purchased peptide, minimal PP1-binding domain of regulator GADD34 with RVxF and ΦΦ motifs (KARKVRFSEKVTVHFL)”, for which the “Binding in pulldown by PPZ1cat compared to PP1α” value with PPZ1cat [7] (in words) is “less effectively”.

Consider “SpinoR469D: spinophilin417–602 variant with Arg motif mutation R469D”, for which, in the assay with PP1α7–330, the “Amount of spinophilin variant pulled down by PP1α” value is “reduces the amount of spinophilin pulled down”.

B1: recombinant 6×His-tagged inhibitor-2 (natural protein)
chain: MAASTASHRPIKGILKNKTSTTSSMVASAEQPRGNVDEELSKKSQKWDEMNILATYHPADKDYGLMKIDEPSTPYHSMMGDDEDACSDTEATEAMAPDILARKLAAAEGLEPKYRIQEQESSGEEDSDLSPEEREKKRQFEMKRKLHYNEGLNIKLARQLISKDLHDDDEDEEMLETADGESMNTEESNQGSTPSDQQQNKLRSS
On to B1, for which the inhibition of phosphatase activity by increasing concentrations of I-2, IC50 came out at 278 nM in assay [12], 7 nM in assay [13] and 12 nM in assay [14].

B2: GADD34(552-567) peptide (peptide, UniProt O75807 552-567, looked up)
peptide: KARKVRFSEKVTVHFL
notes: also called G34
As for B2, the Kd in [15] came to 1150 ± 90 nM.

B3: I-2: inhibitor-2, a specific protein inhibitor of PP1; recombinant 6×His-tagged (protein)
chain: AASTASHRPIKGILKNKTSTTSSMVASAEQPRGNVDEELSKKSQKWDEMNILATYHPADKDYGLMKIDEPSTPYHSMMGDDEDACSDTEATEAMAPDILARKLAAAEGLEPKYRIQEQESSGEEDSDLSPEEREKKRQFEMKRKLHYNEGLNIKLARQLISKDLHDDDEDEEMLETADGESMNTEESNQGSTPSDQQQNKLRSS
B3: the IC50 is 278 nM in the assay with PPZ1FL (PPZ1FL, includes N-terminal IDP domain, read-out: IC50 of I-2) and 7 nM in the assay with PPZ1cat [11] (PPZ1cat, recombinant I-2, read-out: IC50 of I-2).

The Kd is the concentration at which binding is half-saturated. Broadly, the IC50 is the midpoint of a concentration-inhibition curve.

The values are drawn from paper PMC4999541 (mBio, 2016).
